Test results: PMC12866175 (European journal of nuclear medicine and molecular imaging, 2021)

Assay: Radiation dosimetry and clearance kinetics from biodistribution data
Type: in vivo, BALB/c mice

With `C[C@@H](O)[C@H](NC(=O)[C@@H]1CSSC[C@H](NC(=O)[C@@H](Cc2ccccc2)NC(=O)CN2CCN(CC(=O)O)CCN(CC(=O)O)CCN(CC(=O)O)CC2)C(=O)N[C@@H](Cc2ccc(O)cc2)C(=O)N[C@H](Cc2c[nH]c3ccccc23)C(=O)N[C@@H](CCCCN)C(=O)N[C@@H]([C@@H](C)O)C(=O)N1)C(=O)O` [[^225Ac]Ac-DOTA-TATE, metal not drawn] the Absorbed dose/injected activity (^213Bi, Blood) was 0.0000 Gy/kBq, the “Accumulated activity/organ, A~” value (^213Bi, Blood) was 0.2345 kBq×h and the “Decay rate constant, λeff” value (^213Bi, Blood) was 0.011 h⁻¹. The “Initial activity/organ, A○” value (^213Bi, Blood) was 0.0042 kBq, the Absorbed dose/injected activity (^213Bi, Bone) was 0.0000 Gy/kBq and the “Accumulated activity/organ, A~” value (^213Bi, Bone) was 0.9591 kBq×h. For the same compound, the “Decay rate constant, λeff” value (^213Bi, Bone) was 0.0070 h⁻¹, the “Initial activity/organ, A○” value (^213Bi, Bone) was 0.0125 kBq and the Absorbed dose/injected activity (^213Bi, Brain) was 0.0000 Gy/kBq. The “Accumulated activity/organ, A~” value (^213Bi, Brain) was 0.4653 kBq×h, the “Decay rate constant, λeff” value (^213Bi, Brain) was 0.0080 h⁻¹ and the “Initial activity/organ, A○” value (^213Bi, Brain) was 0.0066 kBq. For the same compound, the Absorbed dose/injected activity (^213Bi, Heart) was 0.0000 Gy/kBq, the “Accumulated activity/organ, A~” value (^213Bi, Heart) was 0.5789 kBq×h and the “Decay rate constant, λeff” value (^213Bi, Heart) was 0.0030 h⁻¹. For the same compound, the “Initial activity/organ, A○” value (^213Bi, Heart) was 0.0053 kBq, the Absorbed dose/injected activity (^213Bi, Intestine) was 0.0000 Gy/kBq and the “Accumulated activity/organ, A~” value (^213Bi, Intestine) was 3.6681 kBq×h. For the same compound, the “Decay rate constant, λeff” value (^213Bi, Intestine) was 0.0210 h⁻¹, the “Initial activity/organ, A○” value (^213Bi, Intestine) was 0.1340 kBq and the Absorbed dose/injected activity (^213Bi, Kidney) was 0.0000 Gy/kBq. For the same compound, the “Accumulated activity/organ, A~” value (^213Bi, Kidney) was 7.7700 kBq×h, the “Decay rate constant, λeff” value (^213Bi, Kidney) was 0.0250 h⁻¹ and the “Initial activity/organ, A○” value (^213Bi, Kidney) was 0.3639 kBq. The Absorbed dose/injected activity (^213Bi, Liver) was 0.0000 Gy/kBq, the “Accumulated activity/organ, A~” value (^213Bi, Liver) was 28.7854 kBq×h and the “Decay rate constant, λeff” value (^213Bi, Liver) was -0.0073 h⁻¹. The “Initial activity/organ, A○” value (^213Bi, Liver) was 0.0948 kBq, the Absorbed dose/injected activity (^213Bi, Lung) was 0.0000 Gy/kBq and the “Accumulated activity/organ, A~” value (^213Bi, Lung) was 0.9636 kBq×h. For the same compound, the “Decay rate constant, λeff” value (^213Bi, Lung) was 0.0170 h⁻¹, the “Initial activity/organ, A○” value (^213Bi, Lung) was 0.0270 kBq and the Absorbed dose/injected activity (^213Bi, Muscle) was 0.0000 Gy/kBq. The “Accumulated activity/organ, A~” value (^213Bi, Muscle) was 0.3058 kBq×h, the “Decay rate constant, λeff” value (^213Bi, Muscle) was 0.0050 h⁻¹ and the “Initial activity/organ, A○” value (^213Bi, Muscle) was 0.0034 kBq. The Absorbed dose/injected activity (^213Bi, Pancreas) was 0.0000 Gy/kBq, the “Accumulated activity/organ, A~” value (^213Bi, Pancreas) was 0.5253 kBq×h and the “Decay rate constant, λeff” value (^213Bi, Pancreas) was 0.0140 h⁻¹. For the same compound, the “Initial activity/organ, A○” value (^213Bi, Pancreas) was 0.0119 kBq, the Absorbed dose/injected activity (^213Bi, Salivary) was 0.000 Gy/kBq and the “Accumulated activity/organ, A~” value (^213Bi, Salivary) was 0.6047 kBq×h. For the same compound, the “Decay rate constant, λeff” value (^213Bi, Salivary) was 0.0030 h⁻¹, the “Initial activity/organ, A○” value (^213Bi, Salivary) was 0.0056 kBq and the Absorbed dose/injected activity (^213Bi, Skin) was 0.000 Gy/kBq. The “Accumulated activity/organ, A~” value (^213Bi, Skin) was 0.5575 kBq×h, the “Decay rate constant, λeff” value (^213Bi, Skin) was 0.0040 h⁻¹ and the “Initial activity/organ, A○” value (^213Bi, Skin) was 0.0056 kBq. The Absorbed dose/injected activity (^213Bi, Spleen) was 0.0000 Gy/kBq, the “Accumulated activity/organ, A~” value (^213Bi, Spleen) was 1.2470 kBq×h and the “Decay rate constant, λeff” value (^213Bi, Spleen) was -0.0024 h⁻¹. For the same compound, the “Initial activity/organ, A○” value (^213Bi, Spleen) was 0.0068 kBq, the Absorbed dose/injected activity (^213Bi, Stomach) was 0.0000 Gy/kBq and the “Accumulated activity/organ, A~” value (^213Bi, Stomach) was 2.4230 kBq×h. The “Decay rate constant, λeff” value (^213Bi, Stomach) was 0.0190 h⁻¹, the “Initial activity/organ, A○” value (^213Bi, Stomach) was 0.0777 kBq and the Absorbed dose/injected activity (^213Po, Blood) was 0.0000 Gy/kBq. The “Accumulated activity/organ, A~” value (^213Po, Blood) was 0.2345 kBq×h, the “Decay rate constant, λeff” value (^213Po, Blood) was 0.0110 h⁻¹ and the “Initial activity/organ, A○” value (^213Po, Blood) was 0.0042 kBq. For the same compound, the Absorbed dose/injected activity (^213Po, Bone) was 0.0004 Gy/kBq, the “Accumulated activity/organ, A~” value (^213Po, Bone) was 0.9591 kBq×h and the “Decay rate constant, λeff” value (^213Po, Bone) was 0.0070 h⁻¹. The “Initial activity/organ, A○” value (^213Po, Bone) was 0.0125 kBq, the Absorbed dose/injected activity (^213Po, Brain) was 0.0001 Gy/kBq and the “Accumulated activity/organ, A~” value (^213Po, Brain) was 0.4653 kBq×h. For the same compound, the “Decay rate constant, λeff” value (^213Po, Brain) was 0.0080 h⁻¹, the “Initial activity/organ, A○” value (^213Po, Brain) was 0.0066 kBq and the Absorbed dose/injected activity (^213Po, Heart) was 0.0002 Gy/kBq. For the same compound, the “Accumulated activity/organ, A~” value (^213Po, Heart) was 0.5789 kBq×h, the “Decay rate constant, λeff” value (^213Po, Heart) was 0.0030 h⁻¹ and the “Initial activity/organ, A○” value (^213Po, Heart) was 0.0053 kBq. The Absorbed dose/injected activity (^213Po, Intestine) was 0.0001 Gy/kBq, the “Accumulated activity/organ, A~” value (^213Po, Intestine) was 3.6681 kBq×h and the “Decay rate constant, λeff” value (^213Po, Intestine) was 0.0210 h⁻¹. For the same compound, the “Initial activity/organ, A○” value (^213Po, Intestine) was 0.1340 kBq, the Absorbed dose/injected activity (^213Po, Kidney) was 0.0015 Gy/kBq and the “Accumulated activity/organ, A~” value (^213Po, Kidney) was 7.7700 kBq×h. For the same compound, the “Decay rate constant, λeff” value (^213Po, Kidney) was 0.0250 h⁻¹, the “Initial activity/organ, A○” value (^213Po, Kidney) was 0.3639 kBq and the Absorbed dose/injected activity (^213Po, Liver) was 0.0016 Gy/kBq. For the same compound, the “Accumulated activity/organ, A~” value (^213Po, Liver) was 28.7854 kBq×h, the “Decay rate constant, λeff” value (^213Po, Liver) was -0.0073 h⁻¹ and the “Initial activity/organ, A○” value (^213Po, Liver) was 0.0948 kBq. The Absorbed dose/injected activity (^213Po, Lung) was 0.0002 Gy/kBq, the “Accumulated activity/organ, A~” value (^213Po, Lung) was 0.9636 kBq×h and the “Decay rate constant, λeff” value (^213Po, Lung) was 0.0170 h⁻¹. The “Initial activity/organ, A○” value (^213Po, Lung) was 0.0270 kBq, the Absorbed dose/injected activity (^213Po, Muscle) was 0.0001 Gy/kBq and the “Accumulated activity/organ, A~” value (^213Po, Muscle) was 0.3058 kBq×h. The “Decay rate constant, λeff” value (^213Po, Muscle) was 0.0050 h⁻¹, the “Initial activity/organ, A○” value (^213Po, Muscle) was 0.0034 kBq and the Absorbed dose/injected activity (^213Po, Pancreas) was 0.0002 Gy/kBq. The “Accumulated activity/organ, A~” value (^213Po, Pancreas) was 0.5253 kBq×h, the “Decay rate constant, λeff” value (^213Po, Pancreas) was 0.0140 h⁻¹ and the “Initial activity/organ, A○” value (^213Po, Pancreas) was 0.0119 kBq. For the same compound, the Absorbed dose/injected activity (^213Po, Salivary) was 0.0002 Gy/kBq, the “Accumulated activity/organ, A~” value (^213Po, Salivary) was 0.6047 kBq×h and the “Decay rate constant, λeff” value (^213Po, Salivary) was 0.0030 h⁻¹. For the same compound, the “Initial activity/organ, A○” value (^213Po, Salivary) was 0.0056 kBq, the Absorbed dose/injected activity (^213Po, Skin) was 0.0001 Gy/kBq and the “Accumulated activity/organ, A~” value (^213Po, Skin) was 0.5575 kBq×h. The “Decay rate constant, λeff” value (^213Po, Skin) was 0.0040 h⁻¹, the “Initial activity/organ, A○” value (^213Po, Skin) was 0.0056 kBq and the Absorbed dose/injected activity (^213Po, Spleen) was 0.0006 Gy/kBq. For the same compound, the “Accumulated activity/organ, A~” value (^213Po, Spleen) was 1.2470 kBq×h, the “Decay rate constant, λeff” value (^213Po, Spleen) was -0.0024 h⁻¹ and the “Initial activity/organ, A○” value (^213Po, Spleen) was 0.0068 kBq. The Absorbed dose/injected activity (^213Po, Stomach) was 0.0005 Gy/kBq, the “Accumulated activity/organ, A~” value (^213Po, Stomach) was 2.4230 kBq×h and the “Decay rate constant, λeff” value (^213Po, Stomach) was 0.0190 h⁻¹. The “Initial activity/organ, A○” value (^213Po, Stomach) was 0.0777 kBq, the Absorbed dose/injected activity (^217At, Blood) was 0.001 Gy/kBq and the “Accumulated activity/organ, A~” value (^217At, Blood) was 0.5594 kBq×h. For the same compound, the “Initial activity/organ, A○” value (^217At, Blood) was 0.0019 kBq, the Absorbed dose/injected activity (^217At, Bone) was 0.0003 Gy/kBq and the “Accumulated activity/organ, A~” value (^217At, Bone) was 1.0195 kBq×h. For the same compound, the “Decay rate constant, λeff” value (^217At, Bone) was 0.0100 h⁻¹, the “Initial activity/organ, A○” value (^217At, Bone) was 0.0170 kBq and the Absorbed dose/injected activity (^217At, Brain) was 0.0001 Gy/kBq. The “Accumulated activity/organ, A~” value (^217At, Brain) was 0.7934 kBq×h, the “Decay rate constant, λeff” value (^217At, Brain) was -0.0044 h⁻¹ and the “Initial activity/organ, A○” value (^217At, Brain) was 0.0036 kBq. The Absorbed dose/injected activity (^217At, Heart) was 0.00001 Gy/kBq, the “Accumulated activity/organ, A~” value (^217At, Heart) was 0.2102 kBq×h and the “Decay rate constant, λeff” value (^217At, Heart) was 0.0190 h⁻¹. The “Initial activity/organ, A○” value (^217At, Heart) was 0.0067 kBq, the Absorbed dose/injected activity (^217At, Intestine) was 0.0002 Gy/kBq and the “Accumulated activity/organ, A~” value (^217At, Intestine) was 7.2991 kBq×h. For the same compound, the “Decay rate constant, λeff” value (^217At, Intestine) was 0.0130 h⁻¹, the “Initial activity/organ, A○” value (^217At, Intestine) was 0.1532 kBq and the Absorbed dose/injected activity (^217At, Kidney) was 0.0021 Gy/kBq. For the same compound, the “Accumulated activity/organ, A~” value (^217At, Kidney) was 12.5136 kBq×h, the “Decay rate constant, λeff” value (^217At, Kidney) was 0.0190 h⁻¹ and the “Initial activity/organ, A○” value (^217At, Kidney) was 0.4011 kBq. The Absorbed dose/injected activity (^217At, Liver) was 0.0016 Gy/kBq, the “Accumulated activity/organ, A~” value (^217At, Liver) was 32.1637 kBq×h and the “Decay rate constant, λeff” value (^217At, Liver) was -0.0033 h⁻¹. The “Initial activity/organ, A○” value (^217At, Liver) was 0.1612 kBq, the “Accumulated activity/organ, A~” value (^217At, Lung) was 1.7734 kBq×h and the “Decay rate constant, λeff” value (^217At, Lung) was 0.0080 h⁻¹. For the same compound, the “Initial activity/organ, A○” value (^217At, Lung) was 0.251 kBq, the Absorbed dose/injected activity (^217At, Muscle) was 0.00000 Gy/kBq and the “Accumulated activity/organ, A~” value (^217At, Muscle) was 0.1848 kBq×h. For the same compound, the “Decay rate constant, λeff” value (^217At, Muscle) was 0.0170 h⁻¹.
